Laboratory results taken from publication PMC10450195, “Histone divergence in trypanosomes results in unique alterations to nucleosome structure” (Nucleic Acids Research, 2023).

T1: Trypanosoma brucei histone H2A (Trypanosoma brucei brucei, UniProt Q57YA3 2-134)
T1 construct: also called Tb H2A
T1 sequence: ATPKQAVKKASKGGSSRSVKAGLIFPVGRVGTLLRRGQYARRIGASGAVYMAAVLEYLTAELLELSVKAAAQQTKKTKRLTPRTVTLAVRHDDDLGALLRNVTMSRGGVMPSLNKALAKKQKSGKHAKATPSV

B1: Trypanosoma brucei histone H2B (natural protein, Trypanosoma brucei brucei)
chain: ATPKSTPAKTRKEAKKTRRQRKRTWNVYVSRSLRSINSQMSMTSRTMKIVNSFVNDLFERIAAEAATIVRVNRKRTLGARELQTAVRLVLPADLAKHAMAEGTKAVSHASS
notes: also called Tb H2B
B2: Trypanosoma brucei histone H4 (natural protein)
chain: not shown
notes: also called Tb H4

Assays:
[1] = molecular target: T1, Trypanosoma brucei histone H2A; test: cryo-EM structure; conditions: both partners purified
[2] = molecular target: B1; test: cryo-EM structure; conditions: both partners purified

| Binder | binding result [1] | binding result [2] |
| --- | --- | --- |
| B1 | binds | – |
| B2 | – | binds |
